Values quoted from earlier work in paper PMC7510350.

Key:
SufA (Escherichia coli) = SufA (Escherichia coli) (UniProt P77667)
IscA (Escherichia coli) = IscA (Escherichia coli) (UniProt P0AAC8)
UniProt P0AAC8, sequence (P0AAC8 whole entry): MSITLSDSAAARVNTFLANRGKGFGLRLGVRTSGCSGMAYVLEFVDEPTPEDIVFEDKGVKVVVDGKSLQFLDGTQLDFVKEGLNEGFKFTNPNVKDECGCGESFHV

UniProt P77667, sequence (P77667 whole entry): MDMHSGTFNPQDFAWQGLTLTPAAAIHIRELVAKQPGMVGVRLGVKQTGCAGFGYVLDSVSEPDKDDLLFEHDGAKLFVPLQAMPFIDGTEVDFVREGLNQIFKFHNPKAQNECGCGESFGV

Kd (SufA (Escherichia coli)): 902 µM
Kd (IscA (Escherichia coli)): 40 µM
Substance: ErpA (from UniProt P0ACC3)
